How the values were obtained:
[1] = target: active human C1s purified from human serum (CompTech, Tyler, TX, catalog number A104) (human) (UniProt P09871); assay: cell-based or functional assay
[2] = target: active human C1s purified from human serum (CompTech, Tyler, TX, catalog number A104) (human) (UniProt P09871); assay: SPR, antibody captured via anti-human Fc, C1s in solution

active human C1s purified from human serum (CompTech, Tyler, TX, catalog number A104) (human), sequence (P09871 16-437, chain 1 of 2): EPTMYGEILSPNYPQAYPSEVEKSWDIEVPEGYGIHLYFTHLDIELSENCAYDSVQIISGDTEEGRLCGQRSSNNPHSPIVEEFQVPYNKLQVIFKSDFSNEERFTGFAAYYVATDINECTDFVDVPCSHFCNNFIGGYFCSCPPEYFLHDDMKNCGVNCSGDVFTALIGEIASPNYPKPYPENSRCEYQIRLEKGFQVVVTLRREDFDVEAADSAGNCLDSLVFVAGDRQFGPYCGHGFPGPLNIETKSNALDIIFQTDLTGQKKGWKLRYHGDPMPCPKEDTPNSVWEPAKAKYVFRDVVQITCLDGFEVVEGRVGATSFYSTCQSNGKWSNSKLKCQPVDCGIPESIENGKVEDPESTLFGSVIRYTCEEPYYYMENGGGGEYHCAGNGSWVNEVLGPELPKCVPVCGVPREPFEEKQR
active human C1s purified from human serum (CompTech, Tyler, TX, catalog number A104) (human), sequence (P09871 438-688, chain 2 of 2): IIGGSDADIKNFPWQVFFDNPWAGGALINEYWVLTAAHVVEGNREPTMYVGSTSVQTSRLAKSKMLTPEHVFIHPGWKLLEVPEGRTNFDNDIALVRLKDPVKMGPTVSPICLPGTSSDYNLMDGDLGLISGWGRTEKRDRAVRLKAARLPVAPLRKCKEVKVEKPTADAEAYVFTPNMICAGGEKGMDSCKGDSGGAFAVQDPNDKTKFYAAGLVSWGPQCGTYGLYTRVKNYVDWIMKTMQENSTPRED

Kd [2]: 3.77 nM | koff [2]: 0.00134 s⁻¹ | kon [2]: 357000 M⁻¹ s⁻¹
B1: recombinant TNT020 (antibody, from another filing, V domains shown)
VH: QVQLVQSGAEVKKPGASVKLSCTASGFNIKDDYIHWVKQAPGQGLEWIGRIDPADGHTKYAPKFQVKVTITADTSTSTAYLELSSLRSEDTAVYYCARYGYGREVFDYWGQGTTVTVSS
VL: DIVLTQSPDSLAVSLGERATISCKASQSVDYDGDSYMNWYQQKPGQPPKILIYDASNLESGIPARFSGSGSGTDFTLTISSLEPEDFAIYYCQQSNEDPWTFGGGTKVEIKR
IC50, inhibition of C3b deposition on sensitized hRBCs in 7.5% human serum (flow cytometry), Donor A [1]: 52.9 nM | IC50, inhibition of C3b deposition on sensitized hRBCs in 7.5% human serum (flow cytometry), Donor B (1) [1]: 238 nM | IC50, inhibition of C3b deposition on sensitized hRBCs in 7.5% human serum (flow cytometry), Donor B (2) [1]: 688 nM | IC50, inhibition of sensitized hRBC lysis in 25% human serum, Donor 1 [1]: 20.9 nM | IC50, inhibition of sensitized hRBC lysis in 25% human serum, Donor 2 [1]: 30.7 nM | IC50, inhibition of sensitized hRBC lysis in 25% human serum, Donor 3 [1]: 14.6 nM

Source: patent publication US20250188188A1
